Results on three molecules are retold here after publication PMC3873296, “Crystal Structures and Molecular Dynamics Simulations of Thermophilic Malate Dehydrogenase Reveal Critical Loop Motion for Co-Substrate Binding” (PLoS ONE, 2013).

Data set [1] deals with T1, TtMDH (malate dehydrogenase from Thermus thermophilus) (Thermus thermophilus, UniProt P10584).
T1 construct: gene mdh
T1 sequence (P10584 1-327): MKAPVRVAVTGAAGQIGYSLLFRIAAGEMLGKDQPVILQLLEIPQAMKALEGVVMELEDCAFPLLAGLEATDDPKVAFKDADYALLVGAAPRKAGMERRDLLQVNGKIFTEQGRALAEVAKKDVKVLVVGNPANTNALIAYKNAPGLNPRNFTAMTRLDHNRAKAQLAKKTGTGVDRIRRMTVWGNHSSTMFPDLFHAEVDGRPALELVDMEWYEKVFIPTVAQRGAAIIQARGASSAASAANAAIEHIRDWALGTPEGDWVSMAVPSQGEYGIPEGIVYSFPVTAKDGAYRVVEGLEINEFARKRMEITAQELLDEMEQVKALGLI
Nature of the data set: isothermal titration calorimetry. The format is binding. The source says:
isothermal titration calorimetry on TtMDH (malate dehydrogenase from Thermus thermophilus)
On the technique in general: In ITC the heat of successive injections is recorded.

Data set [2] deals with T1, TtMDH (malate dehydrogenase from Thermus thermophilus). Nature of the data set: X-ray crystal structure, […] Å. The note with it: apo crystal soaked with 2 mM NAD for about 30 min. The format is binding.
Substrate in the data set “purified protein”: O=C(O)CC(=O)C(=O)O
Briefly: purified protein. Format: biochemical, Thermus thermophilus. The note with it: 0.15 mM NADH, 100 mM glycine-NaOH pH 10.0, 37 °C.

Data set [3] concerns the molecule itself. Briefly: SEC; analytical gel filtration on Superdex 200 HR; 0.1 ml TtMDH at 8.8 mg/ml; elution compared with high-molecular-weight standards; estimated mass 61 kDa against 37 kDa for the subunit.

By Kd is commonly meant the free concentration of one partner at which half of the binding sites on the other are occupied at equilibrium, for simple one-to-one binding. The term Km denotes the concentration of substrate that gives half-maximal velocity. By kcat is commonly meant the maximal rate divided by the concentration of active sites. A word on the stoichiometry N: it is the number of molecules, sites or subunits per partner or assembly.

On to `NC(=O)C1=CN([C@@H]2O[C@H](COP(=O)(O)OP(=O)(O)OC[C@H]3O[C@@H](n4cnc5c(N)ncnc54)[C@H](O)[C@@H]3O)[C@@H](O)[C@H]2O)C=CC1` [NADH], for which binding in data set [1] was put at a Kd of 1160 nM. As for `NC(=O)c1ccc[n+]([C@@H]2O[C@H](COP(=O)(O)OP(=O)(O)OC[C@H]3O[C@@H](n4cnc5c(N)ncnc54)[C@H](O)[C@@H]3O)[C@@H](O)[C@H]2O)c1` [NAD], the “X-ray crystal structure, 2.36 Å” value in data set [2] was “co-substrate binding site of TtMDH that could be modeled as NAD”.

B1: Malate dehydrogenase from Thermus thermophilus (enzyme, UniProt P61977 1-327, looked up)
chain: T1 sequence (P10584 1-327)
notes: Malate dehydrogenase (EC 1.1.1.37) of Thermus thermophilus; calculated mass of the recombinant protein 36874.48 Da; also called TtMDH; MDH; source: E. coli BL21(DE3), purified (heat incubation at 70°C, Ni2+-NTA, Superdex 200 HR gel filtration)
Take B1: in “purified protein”, the Km came out at 168.1 µM and the kcat is 281.6 s⁻¹. Moreover, the “stoichiometry N” value in data set [3] is 2.
